Experimental data as given in patent US20180073000A1.
Changes are numbered by the printed parent chain.

Columns and labels:
[1] = biological target: T1, GALNS-201 (C4-N6 + I10-N14) (Homo sapiens)
T1 sequence: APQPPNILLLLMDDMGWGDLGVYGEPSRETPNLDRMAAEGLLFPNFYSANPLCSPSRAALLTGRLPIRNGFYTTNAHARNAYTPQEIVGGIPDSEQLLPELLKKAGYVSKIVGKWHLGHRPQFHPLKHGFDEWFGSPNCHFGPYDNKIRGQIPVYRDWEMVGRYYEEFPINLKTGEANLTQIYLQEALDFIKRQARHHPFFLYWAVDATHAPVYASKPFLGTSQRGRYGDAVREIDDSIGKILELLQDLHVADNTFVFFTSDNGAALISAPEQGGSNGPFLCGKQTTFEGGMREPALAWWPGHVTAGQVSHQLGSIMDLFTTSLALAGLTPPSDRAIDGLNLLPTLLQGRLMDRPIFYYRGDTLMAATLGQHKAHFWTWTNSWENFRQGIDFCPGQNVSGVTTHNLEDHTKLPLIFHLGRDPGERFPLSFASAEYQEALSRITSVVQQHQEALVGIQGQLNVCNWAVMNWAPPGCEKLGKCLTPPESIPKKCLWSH

[2] = biological target: T2, GALNS-231 (C4-N6 + E8-N14 + I10-N14) (Homo sapiens)
T2 sequence: T1 sequence with Y203I, A208L, A211I

[3] = biological target: T3, C4-N6 modified GALNS (Homo sapiens)
T3 sequence: T1 sequence with G455P, I456A, G458P

[4] = biological target: T4, GALNS-242 (C4-N7 + E8-N11) (Homo sapiens)
T4 sequence: T1 sequence with I148L, Y203I, A205L, A211L, G455P, I456A, G458P

[5] = biological target: T5, Wild type N-acetylgalactosamine-6-sulfate sulfatase (GALNS) (Homo sapiens)
T5 sequence: T1 sequence with I148A, G150P, Q151N, G455P, I456A, G458P

[6] = biological target: T6, E8-N13 modified GALNS (Homo sapiens)
T6 sequence: T1 sequence with I148A, G150P, Q151N, Y203I, A208L, A211L, G455P, I456A, G458P

[7] = biological target: T7, GALNS-315 (E8-N14 + I10-N14) (Homo sapiens)
T7 sequence: T1 sequence with I148A, G150P, Q151N, Y203I, A208L, A211I

[8] = biological target: T8, I10-N14 modified GALNS (Homo sapiens)
T8 sequence: T1 sequence with I148A, G150P, Q151N

- GALNS enzyme activity in the pellet of COS-7 cells co-transfected with SUMF1, percentage of GALNS without SUMF1 (percent of GALNS (without SUMF1)) [1]: 545
- GALNS enzyme activity in the pellet of COS-7 cells co-transfected with SUMF1, percentage of GALNS without SUMF1 (percent of GALNS (without SUMF1)) [2]: 628
- GALNS enzyme activity in the pellet of COS-7 cells co-transfected with SUMF1, percentage of GALNS without SUMF1 (percent of GALNS (without SUMF1)) [3]: 443
- GALNS enzyme activity in the pellet of COS-7 cells co-transfected with SUMF1, percentage of GALNS without SUMF1 (percent of GALNS (without SUMF1)) [4]: 434
- GALNS enzyme activity in the pellet of COS-7 cells co-transfected with SUMF1, percentage of GALNS without SUMF1 (percent of GALNS (without SUMF1)) [5]: 1930
- GALNS enzyme activity in the pellet of COS-7 cells co-transfected with SUMF1, percentage of GALNS without SUMF1 (percent of GALNS (without SUMF1)) [6]: 567
- GALNS enzyme activity in the pellet of COS-7 cells co-transfected with SUMF1, percentage of GALNS without SUMF1 (percent of GALNS (without SUMF1)) [7]: 563
- GALNS enzyme activity in the pellet of COS-7 cells co-transfected with SUMF1, percentage of GALNS without SUMF1 (percent of GALNS (without SUMF1)) [8]: 568
B1: Sulfatase-modifying factor 1 (SUMF1) (enzyme)
chain: SQEAGTGAGAGSLAGSCGCGTPQRPGAHGSSAAAHRYSREANAPGPVPGERQLAHSKMVPIPAGVFTMGTDDPQIKQDGEAPARRVTIDAFYMDAYEVSNTEFEKFVNSTGYLTEAEKFGDSFVFEGMLSEQVKTNIQQAVAAAPWWLPVKGANWRHPEGPDSTILHRPDHPVLHVSWNDAVAYCTWAGKRLPTEAEWEYSCRGGLHNRLFPWGNKLQPKGQHYANIWQGEFPVTNTGEDGFQGTAPVDAFPPNGYGLYNIVGNAWEWTSDWWTVHHSVEETLNPKGPPSGKDRVKKGGSYMCHRSYCYRYRCAARSQNTPDSSASNLGFRCAADRLPTMD
